Experimental data reported in patent US9018162B2, “Methods for rapidly treating severe hypoglycemia” (Xeris Pharmaceuticals, Inc., priority 2013, dated 2015).

Columns and labels:
[1] = Effect of pH on insulin solubility in DMSO (visual, A630); format: physicochemical; settings: pH memory of 7, some lower-concentration solutions e.g. 10 mg/mL
Method: These solutions were lyophilized to dryness ([…]) using a conservative cycle and reconstituted to various nominal concentrations in DMSO. Solubility was measured by visual inspection for clarity and turbidity via A630.

[2] = Freezing point depression of DMSO solutions by DSC; format: physicochemical; settings: DSC scan
Method: Using PerkinElmer Instruments PYRIS Diamond Differential Scanning calorimetry (“DSC”), samples were cooled to −40° C. and heated to 40° C. at 8° C. per minute for screening purposes.

Molecule	period to slowly dissolve to a clear solution [1]	temperature of crystallization (Tc) [2] [°C]
insulin	about 24 hours	
C[S+](C)[O-] [neat DMSO, dimethylsulfoxide]		~18
